The experiment has as its target HA–KLC2, O88448. The experiment can be described thus: GST pull-down, immunoblot (IB: HA) quantified. The note with it: chain shown with the change; lysates of 293T cells co-expressing HA-KHC and HA-KLC2 (kinesin-1 tetramer); three independent experiments; parent: est. 1.0; read off a plot. On the technique in general: In western blotting, separated proteins are transferred to a membrane and probed.

Our source for the ratio to parent values is paper PMC5450233.

Positions count from the first letter of the chain named. Names and notes keep the numbering of the source.

Sequence of HA–KLC2, O88448 (O88448 whole entry): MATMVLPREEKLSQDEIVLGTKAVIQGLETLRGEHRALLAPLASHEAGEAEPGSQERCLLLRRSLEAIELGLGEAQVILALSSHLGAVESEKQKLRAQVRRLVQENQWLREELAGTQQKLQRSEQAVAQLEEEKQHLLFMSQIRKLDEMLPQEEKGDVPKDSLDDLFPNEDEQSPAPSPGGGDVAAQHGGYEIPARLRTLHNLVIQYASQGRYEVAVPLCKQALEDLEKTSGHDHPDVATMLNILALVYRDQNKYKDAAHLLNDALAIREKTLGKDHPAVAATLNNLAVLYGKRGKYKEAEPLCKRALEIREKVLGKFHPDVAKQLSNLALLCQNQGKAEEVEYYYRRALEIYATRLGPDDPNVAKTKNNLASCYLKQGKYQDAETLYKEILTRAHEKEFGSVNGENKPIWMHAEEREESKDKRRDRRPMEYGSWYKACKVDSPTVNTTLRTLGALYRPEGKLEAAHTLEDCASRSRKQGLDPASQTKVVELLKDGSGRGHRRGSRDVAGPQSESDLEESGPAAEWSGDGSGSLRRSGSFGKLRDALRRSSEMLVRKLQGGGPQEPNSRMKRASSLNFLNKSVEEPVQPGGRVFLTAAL

B1: GST–SKIP(1-310), Q8IWE5 D220A; F221A; G222A (protein)
chain: MEPGEVKDRILENISLSVKKLQSYFAACEDEIPAIRNHDKVLQRLCEHLDHALLYGLQDLSSGYWVLVVHFTRREAIKQIEVLQHVATNLGRSRAWLYLALNENSLESYLRLFQENLGLLHKYYVKNALVCSHDHLTLFLTLVSGLEFIRFELDLDAPYLDLAPYMPDYYKPQYLLDFEDRLPSSVHGSDSLSLNSFNSVTSTNLEWDDSAIAPSSEDYAAADVFPAVPSVPSTDWEDGDLTDTVSGPRSTASDLTSSKASTRSPTQRQNPFNEEPAETVSSSDTTPVHTTSQEKEEAQALDPPDACTEL
As to B1, the ratio to parent amounted to 0.47.

B2: GST–SKIP(1-310), Q8IWE5 D238A; G239A; D240A (protein)
chain: B1 chain with A220D, A221F, A222G, D238A, G239A, D240A
With B2, the ratio to parent turned out to be 0.89.

B3: GST–SKIP(1-310), Q8IWE5 W236A; E237A (protein)
chain: B1 chain with A220D, A221F, A222G, W236A, E237A
As for B3, the ratio to parent stood at 0.95.

B4: GST–SKIP(1-310), Q8IWE5 E217A; D218A; Y219A (protein)
chain: B1 chain with E217A, D218A, Y219A, A220D, A221F, A222G
Consider B4, for which the ratio to parent turned out to be 0.63.
